Measured values reported in doi:10.1101/2024.02.15.580496 (bioRxiv, 2024).
Positions count from the first letter of the chain named. Names may count otherwise.

Target: the molecule itself
Assay: SEC-MALS

B1: Lip-VIN3VEL (residues 500-603), wild type (domain or fragment)
chain: GKQGGNKRFKSRTVSLNEKPEINNAANGVGDKDLGHIVKTIRCLEEEGHIDKSFRERFLTWYSLRATHREVRVVKIFVETFMEDLSSLGQQLVDTFSESILSKR
binding result: binds

B2: Lip-VIN3VEL (residues 500-603) I575T (domain or fragment)
chain: B1 chain with I76T
binding result: binds
